Laboratory results reported in PMC8262916.

Assays:
Nsp12A;Nsp7;Nsp8 = Nsp12A;Nsp7;Nsp8 (SARS-CoV-2;SARS-CoV-2;SARS-CoV-2, UniProt P0DTD1;P0DTD1;P0DTD1 4393-5324;3860-3942;3943-4140, ||); experiment: EMSA; 2 mM Mg2+; 100 nM RNA
Nsp12T;Nsp7;Nsp8 = Nsp12T;Nsp7;Nsp8 (SARS-CoV-2;SARS-CoV-2;SARS-CoV-2, UniProt P0DTD1;P0DTD1;P0DTD1 4393-5324;3860-3942;3943-4140, ||); experiment: EMSA

Does UUUUCAUGCUACGCGUAGUUUUCUACGCG (structured_RNA) [4N RNA hairpin scaffold] bind (Nsp12A;Nsp7;Nsp8)?
Result: binds

Does UUUUCAUGCUACGCGUAGUUUUCUACGCG (structured_RNA) [4N RNA hairpin scaffold] bind (Nsp12T;Nsp7;Nsp8)?
Result: binds
